Changes are numbered by the printed parent chain.
T1: FcgRIa (human, UniProt P12314)
T1 chain: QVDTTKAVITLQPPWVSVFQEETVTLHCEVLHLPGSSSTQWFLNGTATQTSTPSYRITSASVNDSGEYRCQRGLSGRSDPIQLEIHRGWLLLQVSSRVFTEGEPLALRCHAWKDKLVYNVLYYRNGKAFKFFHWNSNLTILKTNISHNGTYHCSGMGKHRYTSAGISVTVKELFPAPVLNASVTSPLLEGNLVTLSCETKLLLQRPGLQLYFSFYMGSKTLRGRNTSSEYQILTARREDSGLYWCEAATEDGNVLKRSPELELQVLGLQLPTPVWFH

T2: FcgRIIaR (human, UniProt P12318)
T2 chain: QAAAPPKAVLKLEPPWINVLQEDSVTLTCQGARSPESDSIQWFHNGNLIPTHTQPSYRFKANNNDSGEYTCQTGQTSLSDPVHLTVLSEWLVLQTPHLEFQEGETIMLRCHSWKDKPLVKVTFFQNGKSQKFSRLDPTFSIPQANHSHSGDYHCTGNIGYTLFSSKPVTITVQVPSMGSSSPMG

T3: FcgRIIaH (human, UniProt P12318)
T3 chain: T2 chain with R134H

T4: FcgRIIb (human, UniProt P31994)
T4 chain: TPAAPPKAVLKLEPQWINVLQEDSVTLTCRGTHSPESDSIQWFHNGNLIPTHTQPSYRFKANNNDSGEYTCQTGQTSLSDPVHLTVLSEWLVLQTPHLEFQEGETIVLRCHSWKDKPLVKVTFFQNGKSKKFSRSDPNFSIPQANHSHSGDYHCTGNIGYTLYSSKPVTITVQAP

B1: IL6R-AP002/IL6R-BP257/IL6R-L (antibody)
chain 1: QVQLQESGPGLVKPSETLSLTCAVSGHSISHDHAWSWVRQPPGEGLEWIGFISYSGITNYNPSLQGRVTISRDNSKNTLYLQMNSLRAEDTAVYYCARSLARTTAMDYWGEGTLVTVSSASTKGPSVFPLAPSSKSTSGGTAALGCLVKDYFPEPVTVSWNSGALTSGVHTFPAVLQSSGLYSLSSVVTVPSSSLGTQTYICNVNHKPSNTKVDKKVEPKSCDKTHTCPPCPAPDLLGDDSVFLFPPKPKDTLMISRTPEVTCVVVDVSDEDGEVKFNWYVDGVEVHNAKTKPREEQYNSTYRVVSVLTVLHQDWLNGKEYKCKVSNKALPRPIEKTISKAKGQPREPQVYTLPPSRKELTKNQVSLTCLVKGFYPSDIAVEWESNGQPENNYKTTPPVLDSDGSFFLYSKLTVDKSRWQQGNVFSCSVMHEALHNRYTQKSLSLSP
chain 2: B1 chain 1 with S126E, K358D, R437H, K441E
chain 3: not shown
B2: IL6R-AP009/IL6R-BP260/IL6R-L (antibody)
chain 1: B1 chain 1 with Y298D
chain 2: B1 chain 1 with S126E, Y298D, K358D, R437H, K441E
chain 3: not shown
B3: IL6R-AP009/IL6R-BP259/IL6R-L (antibody)
chain 1: B1 chain 1 with Y298D
chain 2: B1 chain 1 with S126D, Y298D, K358D, R437H, K441E
chain 3: not shown
B4: IL6R-AP002/IL6R-BP256/IL6R-L (antibody)
chain 1: B1 chain 1
chain 2: B1 chain 1 with S126D, K358D, R437H, K441E
chain 3: not shown
B5: IL6R-AP029/IL6R-BP408/IL6R-L (antibody)
chain 1: B1 chain 1 with D270E, Y298D
chain 2: B1 chain 1 with L237Q, D270E, Y298D, K358D, R437H, K441E
chain 3: not shown
B6: IL6R-BP408/IL6R-L (antibody)
chain 1: B1 chain 1 with L237Q, D270E, Y298D, K358D, R437H, K441E
chain 2: not shown
B7: IL6R-AP029/IL6R-BP407/IL6R-L (antibody)
chain 1: B1 chain 1 with D270E, Y298D
chain 2: B1 chain 1 with L237D, D270E, Y298D, K358D, R437H, K441E
chain 3: not shown
B8: IL6R-AP029/IL6R-BP410/IL6R-L (antibody)
chain 1: B1 chain 1 with D270E, Y298D
chain 2: B1 chain 1 with L237T, D270E, Y298D, K358D, R437H, K441E
chain 3: not shown
B9: IL6R-BP264/IL6R-L (antibody)
chain 1: B1 chain 1 with D270E, Y298D, K358D, R437H, K441E
chain 2: not shown
B10: IL6R-BP419/IL6R-L (antibody)
chain 1: B1 chain 1 with L237F, D270E, Y298D, K358D, R437H, K441E
chain 2: not shown
B11: IL6R-BP404/IL6R-L (antibody)
chain 1: B1 chain 1 with L236Y, D270E, Y298D, K358D, R437H, K441E
chain 2: not shown
B12: IL6R-AP029/IL6R-BP409/IL6R-L (antibody)
chain 1: B1 chain 1 with D270E, Y298D
chain 2: B1 chain 1 with L237E, D270E, Y298D, K358D, R437H, K441E
chain 3: not shown
B13: IL6R-BP333/IL6R-L (antibody)
chain 1: B1 chain 1 with V266F, D270E, R332A, K358D, R437H, K441E
chain 2: not shown
B14: IL6R-BP267/IL6R-L (antibody)
chain 1: B1 chain 1 with D270E, R332A, K358D, R437H, K441E
chain 2: not shown
B15: IL6R-BP339/IL6R-L (antibody)
chain 1: B1 chain 1 with V266M, D270E, R332A, K358D, R437H, K441E
chain 2: not shown
B16: IL6R-BP300/IL6R-L (antibody)
chain 1: B1 chain 1 with V264I, D270E, R332A, K358D, R437H, K441E
chain 2: not shown
B17: IL6R-BP338/IL6R-L (antibody)
chain 1: B1 chain 1 with V266L, D270E, R332A, K358D, R437H, K441E
chain 2: not shown
B18: IL6R-BP249/IL6R-L (antibody)
chain 1: B1 chain 1 with L236Y, Y298D, K358D, R437H, K441E
chain 2: not shown
B19: IL6R-BP220/IL6R-L (antibody)
chain 1: B1 chain 1 with Y298D, R332K, K358D, R437H, K441E
chain 2: not shown
B20: IL6R-BP246/IL6R-L (antibody)
chain 1: B1 chain 1 with S269Q, Y298D, K328A, K358D, R437H, K441E
chain 2: not shown
B21: IL6R-BP233/IL6R-L (antibody)
chain 1: B1 chain 1 with D235E, L236Y, D270H, R332K, K358D, R437H, K441E
chain 2: not shown
B22: IL6R-BP243/IL6R-L (antibody)
chain 1: B1 chain 1 with L236Y, K358D, R437H, K441E
chain 2: not shown
B23: IL6R-BP225/IL6R-L (antibody)
chain 1: B1 chain 1 with D235E, L236Y, D270H, G273P, K328D, K358D, R437H, K441E
chain 2: not shown
B24: IL6R-BP228/IL6R-L (antibody)
chain 1: B1 chain 1 with D235E, L236Y, S269Q, K328D, K358D, R437H, K441E
chain 2: not shown
B25: IL6R-BP237/IL6R-L (antibody)
chain 1: B1 chain 1 with L236Y, S269Q, Y298D, K328A, R332K, K358D, R437H, K441E
chain 2: not shown
B26: IL6R-BP239/IL6R-L (antibody)
chain 1: B1 chain 1 with L236Y, S269Q, Y298D, K328A, K358D, R437H, K441E
chain 2: not shown
B27: Fv4-IgG1 (antibody)
chain 1: not shown
chain 2: DIQMTQSPSSLSASVGDSVTITCQASTDISSHLNWYQQKPGKAPELLIYYGSHLLSGVPSRFSGSGSGTDFTFTISSLEAEDAATYYCGQGNRLPYTFGQGTKVEIERTVAAPSVFIFPPSDEQLKSGTASVVCLLNNFYPREAKVQWKVDNALQSGNSQESVTEQDSKDSTYSLSSTLTLSKADYEKHKVYACEVTHQGLSSPVTKSFNRGEC
B28: Fv4-P587 (antibody)
chain 1: B1 chain 1 with D239G, V266I, S269A, D270E, R332A, K358D, R437H
chain 2: B27 chain 2
B29: Fv4-P587-LS (antibody)
chain 1: B1 chain 1 with D239G, V266I, S269A, D270E, R332A, K358D, M430L, N436S, R437H
chain 2: B27 chain 2

Target: T1, FcgRIa
Assay: SPR

Kd [nM] | Binder
1.9 | B1
1.7 | B2
3.5 | B3
3.6 | B4

Target: T1, FcgRIa
Assay: SPR
Remark: another data set of the same source

Kd [nM] | Binder
20 | B5
140 | B6
13 | B7
17 | B8
7.4 | B9
40 | B10
10 | B11
19 | B12

Target: T1, FcgRIa
Assay: SPR
Remark: another data set of the same source

Kd [nM] | Binder
9.1 | B13
4 | B14
4.6 | B15
9.6 | B16
15 | B17

Target: T2, FcgRIIaR
Assay: SPR

Kd [nM] | Binder
1500 | B13
1400 | B15
690 | B16
2200 | B17

Target: T2, FcgRIIaR
Assay: SPR
Remark: another data set of the same source

Kd [nM] | Binder
860 | B5
34000 | B6
630 | B7
660 | B8
830 | B10
360 | B11
630 | B12

Target: T3, FcgRIIaH
Assay: SPR

Kd [nM] | Binder
4900 | B1
5400 | B2
6600 | B3
4200 | B4

Target: T4, FcgRIIb
Assay: SPR

Kd [nM] | Binder
120 | B13
130 | B15
58 | B16
150 | B17

Target: T2, FcgRIIaR
Assay: SPR
Remark: another data set of the same source

Kd [nM] | Binder
130 | B1
140 | B2
190 | B3
140 | B4

Target: T1, FcgRIa
Assay: SPR
Remark: another data set of the same source

Kd [nM] | Binder
7 | B18
20 | B19
8 | B20
70 | B21
3 | B22
65 | B23

Target: T4, FcgRIIb
Assay: SPR
Remark: another data set of the same source

Kd [nM] | Binder
26 | B5
720 | B6
19 | B7
22 | B8
26 | B10
11 | B11
15 | B12

Target: T4, FcgRIIb
Assay: SPR
Remark: another data set of the same source

Kd [nM] | Binder
40 | B24
100 | B25
60 | B26

Target: T4, FcgRIIb
Assay: SPR
Remark: another data set of the same source

Kd [nM] | Binder
4.7 | B1
4.2 | B2
3.9 | B3
4.1 | B4

What follows are binders tested against human FcRn (human, UniProt P55899) (assay: SPR, pH 6.0, 25C).

Kd [nM] | Binder
1400 | B27
1500 | B28
120 | B29
